Numbered stars: 1 amine (or outer) side, 2 acyl side, 3 side chain; on linkers, the order of the positions; unused ones are H or OH. Square brackets hold non-standard residues; d marks the D form. Side chains are listed from the residue outwards. Ends that are not written are not given here. * marks the point of attachment. C18 diacid = O=C(O)CCCCCCCCCCCCCCCCC(=O)*; γGlu = O=C(O)[C@H](CCC(=O)[*:2])N[*:1]; AEEA = NCCOCCOCC(=O)O
B1: N^α-([Leu^27]Glucagonyl) … (peptide)
peptide: HSQGTFTSDYSKYLDSRRAQDFVQWLLNTK
modifications: C-terminal Lys (position 30): N-epsilon acylated with the substituent printed in the name

The binders below were run against T1, glucagon receptor (UniProt P47871 26-477, limits assumed) (assay: cell-based or functional assay).
T1 sequence (P47871 26-477 limits assumed): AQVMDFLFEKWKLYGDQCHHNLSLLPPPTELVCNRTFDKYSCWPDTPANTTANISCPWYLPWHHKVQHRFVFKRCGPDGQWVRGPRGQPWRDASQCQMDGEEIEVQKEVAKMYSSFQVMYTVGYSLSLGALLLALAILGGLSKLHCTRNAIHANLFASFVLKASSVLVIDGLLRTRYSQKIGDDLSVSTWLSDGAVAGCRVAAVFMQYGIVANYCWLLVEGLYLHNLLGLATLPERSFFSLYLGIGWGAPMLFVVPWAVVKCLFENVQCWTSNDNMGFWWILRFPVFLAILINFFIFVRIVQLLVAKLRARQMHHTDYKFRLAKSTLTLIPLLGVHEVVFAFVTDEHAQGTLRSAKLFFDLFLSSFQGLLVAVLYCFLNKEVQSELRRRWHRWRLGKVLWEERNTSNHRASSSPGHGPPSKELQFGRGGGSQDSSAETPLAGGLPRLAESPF

| Binder | Assay (I) Glucagon [EC50] |
| --- | --- |
| HSQGTFTSDYSKYLDSRRAQDFVQWLLK([γGlu-γGlu-AEEA-AEEA-γGlu-C18 diacid])T | 0.055 nM |
| HSQGTFTSDYSKYLDSRRAQDFVQWLLNK([γGlu-γGlu-AEEA-AEEA-γGlu-C18 diacid]) | 0.095 nM |
| B1 | 0.056 nM |

Biological target: T1, glucagon receptor
Assay: cell-based or functional assay
Remark: another data set of the same source

| Binder | Assay (I) Glucagon [EC50] |
| --- | --- |
| HSQGTFTSDYSKYLDSRRAQDFVQWLLK([γGlu-γGlu-AEEA-AEEA-γGlu-C18 diacid])T | 0.055 nM |
| HSQGTFTSDYSKYLDSRRAQDFVQWLLNK([γGlu-γGlu-AEEA-AEEA-γGlu-C18 diacid]) | 0.095 nM |
| B1 | 0.056 nM |
| HSQGTFTSDYSKYLDSRRAQDFVK([γGlu-γGlu-γGlu-C18 diacid])WLLST | 0.094 nM |
| HSQGTFTSDYSRYLDSRRAQDFVK([γGlu-γGlu-AEEA-AEEA-γGlu-C18 diacid])WLLNT | 0.127 nM |
| HSQGTFTSDYSKYLDSRRAQDFVQK([γGlu-γGlu-AEEA-AEEA-γGlu-C18 diacid])LLNT | 0.988 nM |
| HSQGTFTSDYSKYLDK([AEEA-AEEA-γGlu-γGlu-γGlu-C18 diacid])RRAQDFVQWLLNT | 0.081 nM |
| HSQGTFTSDYSKYLDK([γGlu-AEEA-AEEA-γGlu-γGlu-C18 diacid])RRAQDFVQWLLNT | 0.122 nM |
| HSQGTFTSDYSKYLDSRRAQDFVQWLLK([γGlu-γGlu-γGlu-C18 diacid])T | 0.141 nM |
| HSQGTFTSDYSK([γGlu-γGlu-AEEA-AEEA-γGlu-C18 diacid])YLDSRRAQDFVQWLLNP | 1.58 nM |
| HSQGTFTSDYSKYLDSRRAQDFVK([γGlu-γGlu-AEEA-AEEA-γGlu-C18 diacid])WLLNP | 0.156 nM |
| HSQGTFTSDYSKYLDSRRAQDFVQWLLK([γGlu-γGlu-AEEA-AEEA-γGlu-C18 diacid])TP | 0.128 nM |
| HSQGTFTSDYSKYLDSRRAQDFVKWLLNTP (Lys 24: N-epsilon acylated with the substituent printed in the name) | 0.142 nM |
| HSQGTFTSDYSKYLDSRRAQDFVQWLK([γGlu-γGlu-AEEA-AEEA-γGlu-C18 diacid])NP | 1.17 nM |
| HSQGTFTSDYSKYLDSRRAQDFVQWLLK([γGlu-γGlu-AEEA-AEEA-γGlu-C18 diacid])P | 0.189 nM |
| HSQGTFTSDYSRYLDSRRAQDFVQWLK([γGlu-γGlu-AEEA-AEEA-γGlu-C18 diacid])NP | 2.11 nM |
| HSQGTFTSDYSKYLDSRRAQEFVK([γGlu-γGlu-AEEA-γGlu-C18 diacid])WLLST | 0.053 nM |
| HSQGTFTSEYSKYLDSRRAQDFVK([γGlu-γGlu-AEEA-γGlu-C18 diacid])WLLST | 2.2 nM |
| HSQGTFTSDYSKYLDSRRAEEFVK([γGlu-γGlu-AEEA-γGlu-C18 diacid])WLLST | 0.12 nM |
| HSQGTFTSDYSKYLDSRRAK([γGlu-γGlu-AEEA-AEEA-γGlu-C18 diacid])DFVQWLLNT | 0.058 nM |
| HSQ[dF]TFTSDYSKYLDSRRAQDFVK([γGlu-γGlu-AEEA-AEEA-γGlu-C18 diacid])WLLST | 0.044 nM |
